Results: PMC2148171 (The Journal of Cell Biology, 1998)
Where two headings read alike, the source gives them in different places.

B1: baculovirus produced 6x histidine-tagged recombinant CHO cell MCAK (mitotic centromere-associated kinesin) (natural protein, Chinese hamster (CHO cell MCAK), UniProt P70096 1-718, looked up)
chain: MESLPARLFPGLSIKIQRSNGLIHSANISTVNVEKSCVSVEWIEGGNTKGKEIDFDDVAAINPELLQLLPLHPKDNLPLQENVTVPKQKRRSVNSKIPAPKEGLRSRSTRMSTVPEVRIATQENEMEVELPVATNSRKQFSVATGLPRPSCPAMTELPLSMVSEEAEEQVHPTRSTSSANPARRKSCIVKEMEKMKNKREEKRAQNSEIRIKRAQEYDSSFPNWEFARMIKEFRVTIECHPLTLTDPTEEHRICVCVRKRPLNKQELAKKEIDVISVPSKCLLFVHEPKLKVDLTKYLENQAFCFDFAFDETASNEVVYRFTARPLVQTIFEGGKATCFAYGQTGSGKTHTMGGDLSGKSQNTSKGIYAMASRDVFLLKSQPRYRNLNLEVYVTFFEIYNGKVFDLLNKKAKLRVLEDSKQQVQVVGLQEYLVNCADDVIKMLNMGSACRTSGQTFANSNSSRSHACFQILLRAKGRLHGKFSLVDLAGNERGADTSSADRQTRMEGAEINKSLLALKECIRALGQNKAHTPFRESKLTQVLRDSFIGENSRTCMIAMISPGISSCEYTLNTLRYADRVKELSPHSGLSGEQPIQMETEEMEASSNGTSLAVNFKEEEELSSQMSSFNEAMSQIRELEERAMEELREIIQQGPGWLELSEMTDQPDYDLETFVNKAESALTQQTKHFSALREVIKALRVAMQLEEQASKQMNSKKRHQ
B2: MCAK (mitotic centromere-associated kinesin) in CHO cells (natural protein, Chinese hamster (endogenous in CHO-K1), UniProt P70096 1-718, looked up)
chain: B1 chain

Legend:
[1] = target: the molecule itself; test: SEC + other: sucrose density gradient centrifugation
[2] = target: the molecule itself; test: as above; remark: listed apart in the source

Protein	stoichiometry N [1]	stoichiometry N [2]
B1	2	
B2		2
